One substance from paper PMC5512451 can be followed below.

The test has as its target N90-VRC38.01 IgG (human). The experiment in a line: SPR.

As for “BG505.DS.T332N.SOSIP.664 gp140 trimer (complex)”, the fold stronger binding of the IgG than of the Fab was above 7 fold.
